The values below come from US20240016952A1 (published 2024).

T1: cynomolgus monkey transferrin receptor 1 (cTfR1) (cynomolgus monkey (Macaca fascicularis), UniProt Q5RDH6 89-760 (Pongo abelii entry), limits assumed)
T1 construct: Recombinant cynomolgus TfR1; also called cyTfR1; cyno TfR1
T1 chain: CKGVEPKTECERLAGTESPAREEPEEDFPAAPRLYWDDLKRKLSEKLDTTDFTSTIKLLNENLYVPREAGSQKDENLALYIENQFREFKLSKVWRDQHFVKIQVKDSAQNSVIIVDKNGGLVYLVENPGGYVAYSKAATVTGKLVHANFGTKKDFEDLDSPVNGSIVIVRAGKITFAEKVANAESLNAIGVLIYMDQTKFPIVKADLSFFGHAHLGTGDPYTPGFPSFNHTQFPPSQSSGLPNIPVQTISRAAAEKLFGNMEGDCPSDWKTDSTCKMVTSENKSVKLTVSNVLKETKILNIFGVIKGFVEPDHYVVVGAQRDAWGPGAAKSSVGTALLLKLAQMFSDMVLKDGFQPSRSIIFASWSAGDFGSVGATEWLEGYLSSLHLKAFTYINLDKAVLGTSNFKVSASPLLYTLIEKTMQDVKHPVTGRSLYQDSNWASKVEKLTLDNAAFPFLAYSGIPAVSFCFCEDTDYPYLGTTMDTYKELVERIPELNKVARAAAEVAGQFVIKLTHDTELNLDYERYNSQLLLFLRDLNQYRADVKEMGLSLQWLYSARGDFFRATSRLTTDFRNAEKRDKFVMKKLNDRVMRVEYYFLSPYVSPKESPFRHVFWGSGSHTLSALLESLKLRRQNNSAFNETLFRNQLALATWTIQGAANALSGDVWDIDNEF

B1: humanized anti-TfR Fab 3M12 VH3/Vk2 (Fab, V domains shown)
VH: QVQLQESGPGLVKPSQTLSLTCSVTGYSITSGYYWNWIRQPPGKGLEWMGYITFDGANNYNPSLKNRVSISRDTSKNQFSLKLSSVTAEDTATYYCTRSSYDYDVLDYWGQGTTVTVSS
VL: DIQMTQSPSSLSASVGDRVTITCRASQDISNFLNWYQQKPGQPVKLLIYYTSRLHSGVPSRFSGSGSGTDFTLTISSLQPEDFATYFCQQGHTLPYTFGQGTKLEIKR
B2: humanized anti-TfR Fab 3M12 VH4/Vk2 (Fab, V domains shown)
VH: B1 VH with S23T, M49I
VL: B1 VL
B3: humanized anti-TfR Fab 3M12 VH3/Vk3 (Fab, V domains shown)
VH: B1 VH
VL: B1 VL with F87Y
B4: humanized anti-TfR Fab 3A4 VH3 (N54T)/Vk4 (Fab, V domains shown)
VH: EVQLVQSGSELKKPGASVKVSCTASGFNIKDDYMYWVRQPPGKGLEWIGWIDPETGDTEYASKFQDRVTVTADTSTNTAYMELSSLRSEDTAVYYCTLWLRRGLDYWGQGTLVTVSS
VL: DIVMTQSPLSLPVTPGEPASISCRSSKSLLHSNGYTYLFWFQQRPGQSPRLLIYRMSNLASGVPDRFSGSGSGTDFTLKISRVEAEDVGVYYCMQHLEYPFTFGGGTKVEIKR
B5: humanized anti-TfR Fab 5H12 VH5 (C33Y)/Vk4 (Fab, V domains shown)
VH: QVQLVQSGAEVKKPGASVKVSCKASGYSFTDYYINWVRQAPGQGLEWMGWIYPGSGNTRYSERFKGRVTITRDTSASTAYMELSSLRSEDTAVYYCAREDYYPYHGMDYWGQGTLVTVSS
VL: DIVMTQSPDSLAVSLGERATINCRASESVDGYDNSFMHWYQQKPGQPPKLLIFRASNLESGVPDRFSGSGSGTDFTLTISSLQAEDVAVYYCQQSSEDPWTFGQGTKLEIKR
notes: also called 5H12 (VH4-C33Y/Vk4)
B6: humanized anti-TfR Fab 5H12 VH5 (C33D)/Vk4 (Fab, V domains shown)
VH: B5 VH with Y33D
VL: B5 VL
B7: humanized anti-TfR Fab 5H12 VH5 (C33Y)/Vk3 (Fab, V domains shown)
VH: B5 VH
VL: B5 VL with M4L, G72R
B8: humanized anti-TfR Fab 3M12 VH3/Vk2 conjugated to DMPK-targeting oligonucleotide ASO300 (Fab, V domains shown)
VH: B1 VH
VL: B1 VL
modifications: Fab conjugated to oligonucleotide ASO300; chain and residue not stated
notes: Fab-oligonucleotide conjugate; The protein chains are those of the unconjugated Fab
B9: humanized anti-TfR Fab 3M12 VH4/Vk3 conjugated to DMPK-targeting oligonucleotide ASO300 (Fab, V domains shown)
VH: B1 VH with S23T, M49I
VL: B1 VL with F87Y
modifications: Fab conjugated to oligonucleotide ASO300; chain and residue not stated
notes: as for B8
B10: humanized anti-TfR Fab 3A4 VH3 (N54T)/Vk4 conjugated to DMPK-targeting oligonucleotide ASO300 (Fab, V domains shown)
VH: B4 VH
VL: B4 VL
modifications: Fab conjugated to oligonucleotide ASO300; chain and residue not stated
notes: as for B8
B11: humanized anti-TfR Fab 3A4 VH3/Vk4 conjugated to DMPK-targeting oligonucleotide ASO300 (Fab, V domains shown)
VH: B4 VH with T55N
VL: B4 VL
modifications: Fab conjugated to oligonucleotide ASO300; chain and residue not stated
notes: as for B8
B12: humanized anti-TfR Fab 3A4 VH3 (N54S)/Vk4 conjugated to DMPK-targeting oligonucleotide ASO300 (Fab, V domains shown)
VH: B4 VH with T55S
VL: B4 VL
modifications: Fab conjugated to oligonucleotide ASO300; chain and residue not stated
notes: as for B8
B13: humanized anti-TfR Fab 5H12 VH5 (C33Y)/Vk4 conjugated to DMPK-targeting oligonucleotide ASO300 (Fab, V domains shown)
VH: B5 VH
VL: B5 VL
modifications: Fab conjugated to oligonucleotide ASO300; chain and residue not stated
notes: Fab-oligonucleotide conjugate; also called 5H12 (VH4-C33Y/Vk4) conjugate
B14: humanized anti-TfR Fab 5H12 VH5 (C33D)/Vk4 conjugated to DMPK-targeting oligonucleotide ASO300 (Fab, V domains shown)
VH: B5 VH with Y33D
VL: B5 VL
modifications: Fab conjugated to oligonucleotide ASO300; chain and residue not stated
notes: as for B8
B15: humanized anti-TfR Fab 5H12 VH5 (C33Y)/Vk3 conjugated to DMPK-targeting oligonucleotide ASO300 (Fab, V domains shown)
VH: B5 VH
VL: B5 VL with M4L, G72R
modifications: Fab conjugated to oligonucleotide ASO300; chain and residue not stated
notes: as for B8
B16: 3-A4 mouse monoclonal anti-TfR1 antibody (antibody, V domains shown)
VH: EVQLQQSGAELVRPGASVKLSCTASGFNIKDDYMYWVKQRPEQGLEWIGWIDPENGDTEYASKFQDKATVTADTSSNTAYLQLSSLTSEDTAVYYCTLWLRRGLDYWGQGTSVTVSS
VL: DIVMTQAAPSVPVTPGESVSISCRSSKSLLHSNGYTYLFWFLQRPGQSPQLLIYRMSNLASGVPDRFSGSGSGTAFTLRISRVEAEDVGVYYCMQHLEYPFTFGGGTKLEIK
notes: Mouse mAb (IgG); also called 3-A04
B17: 3-M12 mouse monoclonal anti-TfR1 antibody (antibody, V domains shown)
VH: DVQLQESGPGLVKPSQSLSLTCSVTGYSITSGYYWNWIRQFPGNKLEWMGYITFDGANNYNPSLKNRISITRDTSKNQFFLKLTSVTTEDTATYYCTRSSYDYDVLDYWGQGTTLTVSS
VL: DIQMTQTTSSLSASLGDRVTISCRASQDISNFLNWYQQRPDGTVKLLIYYTSRLHSGVPSRFSGSGSGTDFSLTVSNLEQEDIATYFCQQGHTLPYTFGGGTKLEIK
notes: Mouse mAb (IgG)

Numbering of substitutions follows the chain as printed. Names and notes keep the numbering of the source.

In one test the target is T1, cynomolgus monkey transferrin receptor …. The test can be described thus: ELISA, cyno TfR1, Fab after 9 days at 40 C. For orientation: In an ELISA, binding on a coated surface is turned into a signal by an enzyme label.
With B1, the “Binding affinity cyno TfR1 d 9” value was determined as 19.5 nM.
As to B2, the “Binding affinity cyno TfR1 d 9” value turned out to be 5.01 nM.
The same measure, in the same setting: the result for B3 reads 15.6 nM; that for B4, 128 nM; that for B5, 0.26 nM.
Take B6: the “Binding affinity cyno TfR1 d 9” value was determined as 0.63 nM.
Take B7: the “Binding affinity cyno TfR1 d 9” value amounted to 0.69 nM.

The target is the same in a further test. The test can be described thus: ELISA on plate-coated cyno TfR1, unconjugated Fab.
Turning to B1, the “Fab binding affinity ELISA” value amounted to 9.9 nM.
Still for that read-out and setting: for B2 the value was 1.4 nM; for B3, 4.7 nM; for B4, 156 nM.
For B5, the “Fab binding affinity ELISA” value was 3.3 nM.
For the molecule B6, the “Fab binding affinity ELISA” value was 3.5 nM.
Consider B7, for which the “Fab binding affinity ELISA” value stood at 2.1 nM.

A further test has the same target. The test can be described thus: ELISA, cyno TfR1, Fab, day 0 of thermal stability test.
Regarding B1, the “Binding affinity cyno TfR1 d 0” value is 9.9 nM.
Regarding B2, the “Binding affinity cyno TfR1 d 0” value amounted to 1.4 nM.
The same measure, in the same setting: the result for B3 reads 4.7 nM; that for B4, 156 nM; that for B5, 3.3 nM.
Turning to B6, the “Binding affinity cyno TfR1 d 0” value was found to be 3.5 nM.
In the case of B7, the “Binding affinity cyno TfR1 d 0” value was 2.1 nM.

Another test has the same target. The test can be described thus: ELISA on plate-coated cyno TfR1, Fab-ASO300 conjugate.
With B8, the “Conjugate binding affinity ELISA” value came to 2.9 nM.
With B9, the “Conjugate binding affinity ELISA” value was determined as 2.1 nM.
For the molecule B10, the “Conjugate binding affinity ELISA” value turned out to be 4.7 nM.
In the case of B11, the “Conjugate binding affinity ELISA” value is 7.6 nM.
On to B12, for which the “Conjugate binding affinity ELISA” value was found to be 7.8 nM.
As for B13, the “Conjugate binding affinity ELISA” value amounted to 3.3 nM.
For B14, the “Conjugate binding affinity ELISA” value turned out to be 10.2 nM.
On to B15, for which the “Conjugate binding affinity ELISA” value is 2.3 nM.

The target is the same in another test. The test can be described thus: ELISA, cyno TfR1, Fab-ASO300 conjugate.
Regarding B8, the “DMPK oligo conjugate binding to cyno TfR1” value (from here on “DMPK oligo conjugate binding”) came to 2.26 nM.
On to B9, for which the “DMPK oligo conjugate binding” value worked out at 1.85 nM.
Turning to B10, the “DMPK oligo conjugate binding” value is 5.12 nM.
On to B11, for which the “DMPK oligo conjugate binding” value was 7.59 nM.
With B12, the “DMPK oligo conjugate binding” value was 4.1 nM.
Take B13: the “DMPK oligo conjugate binding” value was determined as 13.9 nM.
Regarding B14, the “DMPK oligo conjugate binding” value turned out to be 10.2 nM.

In a further test the target is T2, human transferrin receptor 1 (hTfR1) (human, UniProt P02786 89-760).
T2 construct: Recombinant human TfR1; also called huTfR1; Human TfR1
T2 sequence (P02786 89-760 limits assumed): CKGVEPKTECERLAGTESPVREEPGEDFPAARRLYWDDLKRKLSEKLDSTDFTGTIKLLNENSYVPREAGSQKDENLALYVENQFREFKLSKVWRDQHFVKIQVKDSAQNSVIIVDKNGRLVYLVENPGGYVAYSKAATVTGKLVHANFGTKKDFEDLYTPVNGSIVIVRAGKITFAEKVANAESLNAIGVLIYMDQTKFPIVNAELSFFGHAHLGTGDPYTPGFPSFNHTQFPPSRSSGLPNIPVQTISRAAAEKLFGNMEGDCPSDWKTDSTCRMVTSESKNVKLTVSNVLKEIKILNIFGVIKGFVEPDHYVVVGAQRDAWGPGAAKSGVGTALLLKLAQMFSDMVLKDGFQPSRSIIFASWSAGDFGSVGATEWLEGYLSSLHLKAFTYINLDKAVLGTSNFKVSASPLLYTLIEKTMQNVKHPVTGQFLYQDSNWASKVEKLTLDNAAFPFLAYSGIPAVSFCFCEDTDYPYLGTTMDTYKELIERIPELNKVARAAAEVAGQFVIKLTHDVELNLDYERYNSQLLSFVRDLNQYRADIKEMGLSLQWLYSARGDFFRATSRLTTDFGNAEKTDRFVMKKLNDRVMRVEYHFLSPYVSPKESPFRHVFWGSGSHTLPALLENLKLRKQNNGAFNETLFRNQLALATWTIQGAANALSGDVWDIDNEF
The test can be described thus: ELISA on plate-coated human TfR1, Fab-ASO300 conjugate.
In the case of B8, the “Conjugate binding affinity ELISA” value came to 2.2 nM.
For the molecule B9, the “Conjugate binding affinity ELISA” value worked out at 1.7 nM.
Take B10: the “Conjugate binding affinity ELISA” value came out at 2.8 nM.
Same read-out and setting: for B11 the value was 2.8 nM; for B12, 2.9 nM; for B13, 23.7 nM.
Regarding B14, the “Conjugate binding affinity ELISA” value turned out to be 110 nM.
As to B15, the “Conjugate binding affinity ELISA” value was found to be 33.4 nM.

The target in another test is T1, cynomolgus monkey transferrin receptor …. The test can be described thus: average KD, antibody alone; method not given.
The Kd is the concentration at which binding is half-saturated. B16 came in with a Kd of 2.32 nM.
B17 registered a dissociation constant (Kd) of 5.18 nM.
